According to publication PMC11629141 (2024):
Substitutions are numbered along the chain they refer to. Names may count otherwise.

B1: His‐tagged human FcγRIIB extracellular domain protein (domain or fragment)
chain: TPAAPPKAVLKLEPQWINVLQEDSVTLTCRGTHSPESDSIQWFHNGNLIPTHTQPSYRFKANNNDSGEYTCQTGQTSLSDPVHLTVLSEWLVLQTPHLEFQEGETIVLRCHSWKDKPLVKVTFFQNGKSKKFSRSDPNFSIPQANHSHSGDYHCTGNIGYTLYSSKPVTITVQAP
B2: S2B W104A scFv, solitary (scFv, V domains shown)
VH: AVTLDESGGGLQTPGGGLSLVCKASGFTFSSYSMVWVRQAPSKRLEWVAGIYSSATWTYYAPAVKGRATISRDNGQSTVRLQLNDLRAEDTGTYFCAKTSRSGATAYSASAIDAWGHGTEVIV
VL: ALTQPSSVSANPGETVKITCSGGSSYYGWYQQKSPGSAPVTVIYSNDKRPSDIPSRFSGSTSGSTATLTITGVQADDEAVYFCGGYDSNIHGGIFGAGTTLTVL
B3: S2B R101A scFv, solitary (scFv, V domains shown)
VH: B2 VH with R101A, A104W
VL: B2 VL
B4: S2B S164A scFv, solitary (scFv, V domains shown)
VH: B2 VH with A104W
VL: B2 VL with S24A
B5: S2B scFv (blocking anti‐6G11 scFv clone 2), solitary (scFv, V domains shown)
VH: B2 VH with A104W
VL: B2 VL
B6: S2B Y52A scFv, solitary (scFv, V domains shown)
VH: B2 VH with Y52A, A104W
VL: B2 VL

How the values were obtained:
[1] = molecular target: T1, S2B‐Y52A‐6G11 post MMP‐9 digestion (scFv cleaved off, not removed) (human | chicken); assay: BLI; MMP-9 cleaved
Target sequence in this assay (heavy, as listed by the source, chain 2 of 2): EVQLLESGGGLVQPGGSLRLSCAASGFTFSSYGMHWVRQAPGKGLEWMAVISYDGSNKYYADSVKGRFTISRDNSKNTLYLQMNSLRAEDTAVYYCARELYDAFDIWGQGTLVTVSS
Target sequence in this assay (light, as listed by the source, chain 4 of 2): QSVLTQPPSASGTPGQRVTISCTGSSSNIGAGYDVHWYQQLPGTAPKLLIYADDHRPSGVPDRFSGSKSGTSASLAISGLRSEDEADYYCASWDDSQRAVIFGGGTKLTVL

[2] = molecular target: T2, S2B‐W104A‐6G11 post MMP‐9 digestion (scFv cleaved off, not removed) (human | chicken); assay: BLI; MMP-9 cleaved
Target sequence in this assay (heavy, as listed by the source, chain 2 of 2): as the sequence (heavy, as listed by the source, chain 2 of 2) above
Target sequence in this assay (light, as listed by the source, chain 4 of 2): as the sequence (light, as listed by the source, chain 4 of 2) above

[3] = molecular target: T1, S2B‐Y52A‐6G11 post MMP‐9 digestion …; assay: BLI
[4] = molecular target: T3, S2B‐R101A‐6G11 post MMP‐9 digestion (scFv cleaved off, not removed) (human | chicken); assay: BLI
[5] = molecular target: T2, S2B‐W104A‐6G11 post MMP‐9 digestion …; assay: BLI
[6] = molecular target: T3, S2B‐R101A‐6G11 post MMP‐9 digestion …; assay: BLI; MMP-9 cleaved
Target sequence in this assay (heavy, as listed by the source, chain 2 of 2): as the sequence (heavy, as listed by the source, chain 2 of 2) above
Target sequence in this assay (light, as listed by the source, chain 4 of 2): as the sequence (light, as listed by the source, chain 4 of 2) above

[7] = molecular target: T4, 6G11 (BI‐1206), full‐length antibody containing the PGLALA Fc mutations (human); assay: ELISA
T4 sequence (VH, as listed by the source, chain 1 of 2): as the sequence (heavy, as listed by the source, chain 2 of 2) above
T4 sequence (VL, as listed by the source, chain 2 of 2): as the sequence (light, as listed by the source, chain 4 of 2) above

[8] = molecular target: T4, 6G11 (BI‐1206), full‐length antibody …; assay: BLI
[9] = molecular target: T4, 6G11 (BI‐1206), full‐length antibody …; assay: ELISA; first of two printed values (3.3/28.7)

| Binder | EC50 [7] | Kd [8] | other results |
| --- | --- | --- | --- |
| B1 | – | – | Kd [1]: 10.1 nM; Kd [2]: 10.3 nM; Kd [3]: 10.1 nM; Kd [4]: 10.7 nM; Kd [5]: 10.3 nM; Kd [6]: 10.7 nM |
| B2 | 6.7 nM | 9.6 nM | – |
| B3 | 3.7 nM | – | – |
| B4 | 2.7 nM | 0.8 nM | – |
| B5 | – | 1 nM | EC50 [9]: 3.3 nM |
| B6 | 11.2 nM | 4.3 nM | – |
